Drawing on patent US20240301064A1 (published 2024), this text covers Kd for six molecules.

The assay concerns the target T1, human PD-1 (human, UniProt Q15116 25-167, limits assumed).
T1 construct: also called huPD-1
Put plainly: BLI, antibody on AHC tip, soluble PD-1. (In general: Biolayer interferometry detects binding as a change in optical thickness at a sensor tip.)

“And” between values parts separate entries of the source, which are not always exact repeats. Equal values may be shown once.

T1 sequence (Q15116 25-167 limits assumed): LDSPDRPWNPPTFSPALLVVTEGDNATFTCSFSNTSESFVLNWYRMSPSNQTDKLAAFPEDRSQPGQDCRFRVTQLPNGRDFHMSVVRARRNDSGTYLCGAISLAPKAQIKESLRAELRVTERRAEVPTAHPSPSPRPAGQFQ

B1: PMAB134 (bispecific antibody, human IgG1, kappa)
heavy: EVQLLESGGGLVQPGGSLRLSCAASGFTFSNSDMSWVRQAPGKGLEWVSGITISGGSTYYADSVKGRFTISRDNSKNTLYLQMNSLRAEDTAVYYCARGRGGSGWLDYWGQGTLVTVSSASTKGPSVFPLAPSSKSTSGGTAALGCLVKDYFPEPVTVSWNSGALTSGVHTFPAVLQSSGLYSLSSVVTVPSSSLGTQTYICNVNHKPSNTKVDKKVEPKSCDKTHTCPPCPAPEAAGAPSVFLFPPKPKDTLMISRTPEVTCVVVDVSHEDPEVKFNWYVDGVEVHNAKTKPREEQYNSTYRVVSVLTVLHQDWLNGKEYKCKVSNKALPAPIEKTISKAKGQPREPQVYTLPPSREEMTKNQVSLTCLVKGFYPSDIAVEWESNGQPENNYKTTPPVLDSDGSFFLYSKLTVDKSRWQQGNVFSCSVMHEALHNHYTQKSLSLSPGGGGGSGGGGSGGGGSEVQLLESGGGLVQPGGSLRLSCAASGFTFSDFWMHWVRQAPGKGLEWISYISGDSGYTNYADSVKGRFTISRDNSKNTLYLQMNSLRAEDTAVYYCARDRPYYYYMDVWGKGTTVTVSSGGGGSGGGGSGGGGSGGGGSDIQMTQSPSSLSASVGDRVTITCRASQSVSRSLAWYQQKPGKAPKLLIYAASSLQSGVPSRFSGSGSGTDFTLTISSLQPEDFATYYCQQYKSYPVTFGQGTKVEIK
light: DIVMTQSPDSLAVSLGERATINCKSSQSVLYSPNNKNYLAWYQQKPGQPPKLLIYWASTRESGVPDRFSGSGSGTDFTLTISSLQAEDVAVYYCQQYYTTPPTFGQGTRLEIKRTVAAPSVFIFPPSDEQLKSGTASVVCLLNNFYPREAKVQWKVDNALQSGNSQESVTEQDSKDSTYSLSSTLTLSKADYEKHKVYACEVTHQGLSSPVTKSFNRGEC
For orientation: Kd means the free concentration of one partner at which half of the binding sites on the other are occupied at equilibrium, for simple one-to-one binding. Higher therefore signals a looser complex. With B1, the Kd is 0.006 µM and 0.0116 µM and 0.0111 µM.

B2: PMAB138 (bispecific antibody, human IgG1, kappa)
heavy: EVQLLESGGGLVQPGGSLRLSCAASGFTFSNSDMSWVRQAPGKGLEWVSAITISGGSTYYADSVKGRFTISRDNSKNTLYLQMNSLRAEDTAVYYCARGRGGSGWLDYWGQGTLVTVSSASTKGPSVFPLAPSSKSTSGGTAALGCLVKDYFPEPVTVSWNSGALTSGVHTFPAVLQSSGLYSLSSVVTVPSSSLGTQTYICNVNHKPSNTKVDKKVEPKSCDKTHTCPPCPAPEAAGAPSVFLFPPKPKDTLMISRTPEVTCVVVDVSHEDPEVKFNWYVDGVEVHNAKTKPREEQYNSTYRVVSVLTVLHQDWLNGKEYKCKVSNKALPAPIEKTISKAKGQPREPQVYTLPPSREEMTKNQVSLTCLVKGFYPSDIAVEWESNGQPENNYKTTPPVLDSDGSFFLYSKLTVDKSRWQQGNVFSCSVMHEALHNHYTQKSLSLSPGGGGGSGGGGSGGGGSEVQLLESGGGLVQPGGSLRLSCAASGFTFSDFWMHWVRQAPGKGLEWISYISGDSGYTNYADSVKGRFTISRDNSKNTLYLQMNSLRAEDTAVYYCARDRPYYYYMDVWGKGTTVTVSSGGGGSGGGGSGGGGSGGGGSDIQMTQSPSSLSASVGDRVTITCRASQSVSRSLAWYQQKPGKAPKLLIYAASSLQSGVPSRFSGSGSGTDFTLTISSLQPEDFATYYCQQYKSYPVTFGQGTKVEIK
light: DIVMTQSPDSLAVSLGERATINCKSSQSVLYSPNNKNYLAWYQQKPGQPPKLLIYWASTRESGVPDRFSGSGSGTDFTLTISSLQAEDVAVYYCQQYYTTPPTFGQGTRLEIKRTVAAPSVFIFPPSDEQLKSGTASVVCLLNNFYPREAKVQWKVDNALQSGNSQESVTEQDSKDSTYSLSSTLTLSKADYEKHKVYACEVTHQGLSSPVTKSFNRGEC
Take B2: the equilibrium dissociation constant (Kd) was 0.053 µM.

B3: PMAB135 (bispecific antibody, human IgG1, kappa)
heavy: EVQLLESGGGLVQPGGSLRLSCAASGFTFSSSDMSWVRQAPGKGLEWVSGITISGGSTYYADSVKGRFTISRDNSKNTLYLQMNSLRAEDTAVYYCARGRGGSGWLDYWGQGTLVTVSSASTKGPSVFPLAPSSKSTSGGTAALGCLVKDYFPEPVTVSWNSGALTSGVHTFPAVLQSSGLYSLSSVVTVPSSSLGTQTYICNVNHKPSNTKVDKKVEPKSCDKTHTCPPCPAPEAAGAPSVFLFPPKPKDTLMISRTPEVTCVVVDVSHEDPEVKFNWYVDGVEVHNAKTKPREEQYNSTYRVVSVLTVLHQDWLNGKEYKCKVSNKALPAPIEKTISKAKGQPREPQVYTLPPSREEMTKNQVSLTCLVKGFYPSDIAVEWESNGQPENNYKTTPPVLDSDGSFFLYSKLTVDKSRWQQGNVFSCSVMHEALHNHYTQKSLSLSPGGGGGSGGGGSGGGGSEVQLLESGGGLVQPGGSLRLSCAASGFTFSDFWMHWVRQAPGKGLEWISYISGDSGYTNYADSVKGRFTISRDNSKNTLYLQMNSLRAEDTAVYYCARDRPYYYYMDVWGKGTTVTVSSGGGGSGGGGSGGGGSGGGGSDIQMTQSPSSLSASVGDRVTITCRASQSVSRSLAWYQQKPGKAPKLLIYAASSLQSGVPSRFSGSGSGTDFTLTISSLQPEDFATYYCQQYKSYPVTFGQGTKVEIK
light: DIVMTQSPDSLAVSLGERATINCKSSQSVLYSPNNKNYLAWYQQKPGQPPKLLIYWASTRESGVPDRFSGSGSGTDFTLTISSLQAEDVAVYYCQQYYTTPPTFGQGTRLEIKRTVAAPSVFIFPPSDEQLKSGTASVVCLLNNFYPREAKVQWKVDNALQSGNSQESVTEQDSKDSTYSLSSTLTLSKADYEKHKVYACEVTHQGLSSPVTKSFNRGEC
Turning to B3, binding was put at a Kd of 0.003 µM. Against the preceding molecule, the Kd is about 18-fold lower.

B4: PMAB139 (bispecific antibody, human IgG1, kappa)
heavy: EVQLLESGGGLVQPGGSLRLSCAASGFTFSNSDMSWVRQAPGKGLEWVSGISISGGSTYYADSVKGRFTISRDNSKNTLYLQMNSLRAEDTAVYYCARGRGGSGWLDYWGQGTLVTVSSASTKGPSVFPLAPSSKSTSGGTAALGCLVKDYFPEPVTVSWNSGALTSGVHTFPAVLQSSGLYSLSSVVTVPSSSLGTQTYICNVNHKPSNTKVDKKVEPKSCDKTHTCPPCPAPEAAGAPSVFLFPPKPKDTLMISRTPEVTCVVVDVSHEDPEVKFNWYVDGVEVHNAKTKPREEQYNSTYRVVSVLTVLHQDWLNGKEYKCKVSNKALPAPIEKTISKAKGQPREPQVYTLPPSREEMTKNQVSLTCLVKGFYPSDIAVEWESNGQPENNYKTTPPVLDSDGSFFLYSKLTVDKSRWQQGNVFSCSVMHEALHNHYTQKSLSLSPGGGGGSGGGGSGGGGSEVQLLESGGGLVQPGGSLRLSCAASGFTFSDFWMHWVRQAPGKGLEWISYISGDSGYTNYADSVKGRFTISRDNSKNTLYLQMNSLRAEDTAVYYCARDRPYYYYMDVWGKGTTVTVSSGGGGSGGGGSGGGGSGGGGSDIQMTQSPSSLSASVGDRVTITCRASQSVSRSLAWYQQKPGKAPKLLIYAASSLQSGVPSRFSGSGSGTDFTLTISSLQPEDFATYYCQQYKSYPVTFGQGTKVEIK
light: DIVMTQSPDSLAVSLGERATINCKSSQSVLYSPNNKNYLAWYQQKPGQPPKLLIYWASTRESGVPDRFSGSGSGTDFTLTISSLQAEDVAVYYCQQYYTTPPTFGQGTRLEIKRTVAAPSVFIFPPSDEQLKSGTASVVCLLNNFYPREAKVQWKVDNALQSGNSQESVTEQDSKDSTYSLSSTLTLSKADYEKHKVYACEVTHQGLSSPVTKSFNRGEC
Consider B4, for which binding was characterised by a dissociation constant (Kd) of 0.05 µM.

B5: PMAB140 (bispecific antibody, human IgG1, kappa)
heavy: EVQLLESGGGLVQPGGSLRLSCAASGFTFSNSDMSWVRQAPGKGLEWVSGITGSGGSTYYADSVKGRFTISRDNSKNTLYLQMNSLRAEDTAVYYCARGRGGSGWLDYWGQGTLVTVSSASTKGPSVFPLAPSSKSTSGGTAALGCLVKDYFPEPVTVSWNSGALTSGVHTFPAVLQSSGLYSLSSVVTVPSSSLGTQTYICNVNHKPSNTKVDKKVEPKSCDKTHTCPPCPAPEAAGAPSVFLFPPKPKDTLMISRTPEVTCVVVDVSHEDPEVKFNWYVDGVEVHNAKTKPREEQYNSTYRVVSVLTVLHQDWLNGKEYKCKVSNKALPAPIEKTISKAKGQPREPQVYTLPPSREEMTKNQVSLTCLVKGFYPSDIAVEWESNGQPENNYKTTPPVLDSDGSFFLYSKLTVDKSRWQQGNVFSCSVMHEALHNHYTQKSLSLSPGGGGGSGGGGSGGGGSEVQLLESGGGLVQPGGSLRLSCAASGFTFSDFWMHWVRQAPGKGLEWISYISGDSGYTNYADSVKGRFTISRDNSKNTLYLQMNSLRAEDTAVYYCARDRPYYYYMDVWGKGTTVTVSSGGGGSGGGGSGGGGSGGGGSDIQMTQSPSSLSASVGDRVTITCRASQSVSRSLAWYQQKPGKAPKLLIYAASSLQSGVPSRFSGSGSGTDFTLTISSLQPEDFATYYCQQYKSYPVTFGQGTKVEIK
light: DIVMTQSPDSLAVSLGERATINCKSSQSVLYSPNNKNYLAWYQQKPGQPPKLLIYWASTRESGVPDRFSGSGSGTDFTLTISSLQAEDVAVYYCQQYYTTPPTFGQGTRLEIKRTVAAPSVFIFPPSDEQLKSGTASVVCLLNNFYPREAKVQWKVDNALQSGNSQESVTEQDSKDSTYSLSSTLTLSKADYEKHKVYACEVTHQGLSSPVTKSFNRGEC
Consider B5, for which the Kd was determined as 0.022 µM.

B6: PMAB136 (bispecific antibody, human IgG1, kappa)
heavy: EVQLLESGGGLVQPGGSLRLSCAASGFTFSNYDMSWVRQAPGKGLEWVSGITISGGSTYYADSVKGRFTISRDNSKNTLYLQMNSLRAEDTAVYYCARGRGGSGWLDYWGQGTLVTVSSASTKGPSVFPLAPSSKSTSGGTAALGCLVKDYFPEPVTVSWNSGALTSGVHTFPAVLQSSGLYSLSSVVTVPSSSLGTQTYICNVNHKPSNTKVDKKVEPKSCDKTHTCPPCPAPEAAGAPSVFLFPPKPKDTLMISRTPEVTCVVVDVSHEDPEVKFNWYVDGVEVHNAKTKPREEQYNSTYRVVSVLTVLHQDWLNGKEYKCKVSNKALPAPIEKTISKAKGQPREPQVYTLPPSREEMTKNQVSLTCLVKGFYPSDIAVEWESNGQPENNYKTTPPVLDSDGSFFLYSKLTVDKSRWQQGNVFSCSVMHEALHNHYTQKSLSLSPGGGGGSGGGGSGGGGSEVQLLESGGGLVQPGGSLRLSCAASGFTFSDFWMHWVRQAPGKGLEWISYISGDSGYTNYADSVKGRFTISRDNSKNTLYLQMNSLRAEDTAVYYCARDRPYYYYMDVWGKGTTVTVSSGGGGSGGGGSGGGGSGGGGSDIQMTQSPSSLSASVGDRVTITCRASQSVSRSLAWYQQKPGKAPKLLIYAASSLQSGVPSRFSGSGSGTDFTLTISSLQPEDFATYYCQQYKSYPVTFGQGTKVEIK
light: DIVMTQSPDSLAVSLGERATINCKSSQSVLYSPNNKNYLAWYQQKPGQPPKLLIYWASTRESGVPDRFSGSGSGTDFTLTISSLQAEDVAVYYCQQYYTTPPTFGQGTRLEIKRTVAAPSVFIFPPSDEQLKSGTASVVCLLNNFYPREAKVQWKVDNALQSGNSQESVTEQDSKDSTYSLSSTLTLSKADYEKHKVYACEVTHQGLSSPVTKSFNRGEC
For B6, binding was put at a Kd of 0.036 µM.
